Reference: patent US10294520B2, “Nicotiana nucleic acid molecules and uses thereof” (U.S. Smokeless Tobacco Company LLC, priority 2004, dated 2019)
Positions count from the first letter of the chain named.

T1: tobacco nicotine demethylase (D121-AA8) (Nicotiana tabacum, UniProt Q38Q87)
T1 sequence (Q38Q87 with tags, fused parts or gaps): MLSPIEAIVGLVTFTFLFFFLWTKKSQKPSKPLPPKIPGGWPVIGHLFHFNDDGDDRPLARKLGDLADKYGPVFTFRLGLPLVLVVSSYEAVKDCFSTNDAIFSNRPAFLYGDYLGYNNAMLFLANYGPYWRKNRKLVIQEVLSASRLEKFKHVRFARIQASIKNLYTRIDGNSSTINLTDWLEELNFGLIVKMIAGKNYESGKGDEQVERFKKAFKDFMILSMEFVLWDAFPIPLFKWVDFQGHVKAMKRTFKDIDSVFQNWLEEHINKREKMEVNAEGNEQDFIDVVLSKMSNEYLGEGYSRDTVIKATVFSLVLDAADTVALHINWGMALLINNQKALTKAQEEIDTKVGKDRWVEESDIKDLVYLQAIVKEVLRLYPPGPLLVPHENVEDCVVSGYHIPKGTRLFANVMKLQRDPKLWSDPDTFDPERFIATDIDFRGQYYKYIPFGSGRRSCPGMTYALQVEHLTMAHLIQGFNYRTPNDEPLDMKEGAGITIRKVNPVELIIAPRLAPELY

T2: nicotine demethylase activity in the transformed yeast cells (Nicotiana tabacum, UniProt Q38Q87)
T2 construct: expressed in transfected cells; host or cells: Saccharomyces cerevisiae WAT11 transformed with pYeDP60-p450 cDNA plasmid, galactose-induced culture
T2 sequence (Q38Q87 with tags, fused parts or gaps): T1 sequence (Q38Q87 with tags, fused parts or gaps)

B1: Control (CYP71D20): a p450 catalyzing the hydroxylation of 5-epi-aristolochene and 1-deoxycapsidiol in Nicotiana tabacum, used as control (protein, UniProt Q94FM7 1-504, looked up)
5-epiaristolochene …: MQFFSLVSIFLFLSFLFLLRKWKNSNSQSKKLPPGPWKIPILGSMLHMIGGEPHHVLRDLAKKYGPLMHLQLGEISAVVVTSRDMAKEVLKTHDVVFASRPKIVAMDIICYNQSDIAFSPYGDHWRQMRKICVMELLNAKNVRSFSSIRRDEVVRLIDSIRSDSSSGELVNFTQRIIWFASSMTCRSAFGQVLKGQDIFAKKIREVIGLAEGFDVVDIFPTYKFLHVLSGMKRKLLNAHLKVDAIVEDVINEHKKNLAAGKSNGALGGEDLIDVLLRLMNDTSLQFPITNDNIKAVIVDMFAAGTETSSTTTVWAMAEMMKNPSVFTKAQAEVREAFRDKVSFDENDVEELKYLKLVIKETLRLHPPSPLLVPRECREDTDINGYTIPAKTKVMVNVWALGRDPKYWDDAESFKPERFEQCSVDFFGNNFEFLPFGGGRRICPGMSFGLANLYLPLAQLLYHFDWKLPTGIMPRDLDLTELSGITIARKGGLYLNATPYQPSRE
B2: D208-AD9: test p450 from a full-length tobacco clone, expressed in yeast (protein, listed as Nicotiana tabacum)
chain: T1 sequence (Q38Q87 with tags, fused parts or gaps) with I163M, K309E, G353C, S452P

How the values were obtained:
[1] = biological target: T1, tobacco nicotine demethylase (D121-AA8); assay: Nicotine demethylase activity assay with yeast microsomal preparations; settings: for nornicotine produced from the demethylation of nicotine (HPLC and LSC): microsomal samples from yeast cells expressing the p450
Description: After induction by galactose for 20 hours, yeast cells were collected by centrifugation and washed twice with TES-M buffer (50 mM Tris-HCl, pH 7.5, 1 mM EDTA, 0.6 M sorbitol, 10 mM 2-mercaptoethanol). The pellet was resuspended in extraction buffer (50 mM Tris-HCl, pH 7.5, 1 mM EDTA, 0.6 M sorbitol, 2 mM 2-mercaptoethanol, 1% bovine serum album, Protease Inhibitor Cocktail (Roche) at 1 tablet/50 ml). Cells were then broken with glass beads (0.5 mm in diameter, Sigma) and the cell extract was centrifuged for 20 min at 20,000×g to remove cellular debris. The supernatant was subjected to ultracentrifugation at 100,000×g for 60 min and the resultant pellet contained the microsomal fraction. The microsomal fraction was suspended in TEG-M buffer (50 mM Tris-HCl, pH 7.5, 1 mM EDTA, 20% glycerol and 1.5 mM 2-mercaptoethanol) at protein concentration of 1 mg/mL. Microsomal preparations were stored in a liquid nitrogen freezer until use.
Nicotine demethylase activity assays with yeast microsomal preparations were performed. […] Chlorpromazine (CPZ) and oxidized cytochrome c (cyt. C), both P450 inhibitors, were purchased from Sigma. […] NADPH was omitted for control incubation. The routine enzyme assay included microsomal proteins (around 1 mglrnl), 6 mM NADPH, and 55 μM ^14C labeled nicotine. […] C, when used, was 1 mM and 100 μM, respectively. The reaction was carried at 25° C. for 1 hour and was stopped with the addition of 300 μM methanol to each 25 μl reaction mixture. After centrifugation, 20 μl of the methanol extract was separated with a reverse-phase High Performance Liquid Chromatography (HPLC) system (Agilent) using an Inertsil ODS-3 3μ (150×4.6 mm) chromatography column from Varian. The isocratic mobile phase was the mixture of methanol and 50 mM potassium phosphate buffer, pH 6.25, with ratio of 60:40 (v/v) and the flow rate was 1 ml/min. The nornicotine peak, as determined by comparison with authentic non-labeled nornicotine, was collected and subjected to 2900 tri-carb Liquid ScintlDation Counter (LSC) (Perkin Elmer) for quantification. The activity of nicotine demethylase is calculated based on the production of ^14C labeled nornicotine over 1 hour incubation.

[2] = biological target: T2, nicotine demethylase activity in the transformed yeast cells; assay: In vivo enzyme assay: feeding transformed yeast culture with 14C labeled nicotine; assay type: cell-based; settings: WAT11 yeast, galactose-induced culture, 55 μM 14C nicotine, 6 hours
Description: Single yeast colonies were used to inoculate 30 mL SGI media (5 g/L bactocasamino acids, 6.7 g/L yeast nitrogen base without amino acids, 20 g/L glucose, 40 mg/L DL-tryptophan) and grown at 30° C. for about 24 hours. An aliquot of this culture was diluted 1:50 into 1000 mL of YPGE media (10 g/L yeast extract, 20 g/L bacto peptone, 5 g/L glucose, 30 ml/L ethanol) and grown until glucose was completely consumed as indicated by the colorimetric change of a Diastix urinalysis reagent strip (Bayer, Elkhart, Ind.). Induction of cloned P450 was initiated by adding DL-galactose to a final concentration of 2%. The cultures were grown for an additional 20 hours before used for in vivo activity assay or for microsome preparation.
WAT11 yeast cells expressing pYeDP60-CYP71D20 (a p450 catalyzing the hydroxylation of 5-epi-aristolochene and 1-deoxycapsidiol in Nicotiana tabacum) were used as control for the p450 expression and enzyme activity assays.
The nicotine demethylase activity in the transformed yeast cells were assayed by feeding of yeast culture with DL-Nicotine (Pyrrolidine-2-^14C). ^14C labeled nicotine (54 mCi/mmol) was added to 75 μl of the galactose-induced culture for a final concentration of 55 μM. […] After spinning, 20 μl of the methanol extract was separated with an rp-HPLC and the nornicotine fraction was quantitated by LSC.

effect on nicotine demethylase activity of D121-AA8 microsomes ([1]; Chlorpromazine 1 mM, incubated for 1 hour)	Molecule	nornicotine produced from the demethylation of nicotine (HPLC and LSC) [1]	Demethylase activity, Microsomes + 100 μM cytochrome C ([1]; yeast microsomes with 100 μM oxidized cytochrome c, n = 3)	Demethylase activity, Microsomes + 1 mM chlorpromazine ([1]; yeast microsomes with 1 mM chlorpromazine, n = 3)	Demethylase activity, Microsomes ([1]; yeast microsomes, 6 mM NADPH, 55 μM 14C labeled nicotine, 25° C., 1 hour, n = 12)	conversion of nicotine to nornicotine in yeast culture [2]
decreased significantly	CN(C)CCCN1c2ccccc2Sc2ccc(Cl)cc21 [Chlorpromazine, reference compound]	–	–	–	–	–
–	B1	did not show any nornicotine conversion formation	Not Detected	Not Detected	Not Detected	did not convert nicotine to nornicotine
–	B2	did not show any nornicotine conversion formation	–	–	–	–
